Measurements reported in article PMC8918354.

Molecular target: iron superoxide dismutase SodB from Acinetobacter sp. Ver3 (Acinetobacter sp. Ver3)
Assay: crystal structure; space group C222(1), one molecule per asymmetric unit, dimer formed by crystallographic symmetry; 1.34 Å; crystals grown at 20 °C from 10 mg/ml protein with 1 mM FMN in the mother liquor

iron superoxide dismutase SodB from Acinetobacter sp. Ver3 (enzyme)
stoichiometry N: 2
